# Reference: patent US20170247475A1 (Boehringer Ingelheim, published 2017)
# Changes are numbered by the printed parent chain. Numbers in names are those of the source.
# B1: VEGFBII05B02 (VHH)
# VHH: EVQLVESGGGLVQAGGSLRLSCAASGRTFSTDDVGWFRQAPGKEREFVAVIRWSTGGTYTSDSVKGRFTLSRDNAKNTMYLQMNSLKPEDTAVYYCAARSRPLGAGAWYSGEKHYNYWGQGTQVTVSS
# B2: VEGFBII61A01 (VHH)
# VHH: EVQLVESGGGLVQAGGSLRLSCAFSGRTFSSYSMGWFRQAQGKEREFVVAISSGGYKYDAVSLEGRFTISRDNTKNTVYLQTPSLKPEDTAVYYCAASRAYASSRLRLADTYDYWGQGTQVTVSS
# notes: periplasmic extract
# B3: VEGFBII62F02 (VHH)
# VHH: B2 VHH with A14P, G16D, R19K, S52A, K57I, N76D, A102G
# notes: periplasmic extract
# B4: VEGFBII111D05 (VHH)
# VHH: EVQLVESGGGLVQTGGSLRLSCEASGRTFSSYSMGWFRQAPGKEREFVVAISKGGYKYDSVSLEGRFTISRDNAKNTVYLQINSLRPEDTAVYYCASSRAYGSSRLRLADTYEYWGQGTLVTVSS
# B5: VEGFBII114D03 (VHH)
# VHH: B4 VHH with G16D, E23A, A24V, P41Q, R71K
# B6: VEGFBII112D11 (VHH)
# VHH: B4 VHH with T14P
# B7: VEGFBII111G06 (VHH)
# VHH: B4 VHH with T14P, E23A, I82M
# B8: VEGFBII113A08 (VHH)
# VHH: B4 VHH with A24V, R71K
# B9: VEGFBII113E03 (VHH)
# VHH: B4 VHH with G16D, A24V, P41Q, R71K, I82M
# B10: VEGFBII114D02 (VHH)
# VHH: B4 VHH with A24V
# B11: VEGFBII114C09 (VHH)
# VHH: B4 VHH with T14P, G16D, A24V, R71K
# B12: VEGFBII118E10 (VHH)
# VHH: B4 VHH with G16D, A24V, P41Q, S60A, R71K, R86K, L120Q
# notes: VEGFBII23B04 with the S60A mutation, purified protein
# B13: VEGFBII05B03 (VHH)
# VHH: EVQLVESGGGLAQAGDSLRLSCAASGRSFSHYNMGWFRQAPGKEREFVASIRGGGGSTTYANSVKDRFTISRENAKNTVYLQMNSLKPEDTAVYYCAATAFYRGPYDYDYWGQGTQVTVSS
# B14: VEGFBII22A10 (VHH)
# VHH: EVQLVESGGGLVQPGDSLKLSCAFSGRTFSSYSMGWFRQAQGKEREFVVAISSSGGYIYDSVSLEGRFTISRDNTKNTVYLQTPSLKPEDTADYYCAASRAYGSSRLRLADTYDYWGQGTQVTVSS
# notes: periplasmic extract
# B15: VEGFBII62D10 (VHH)
# VHH: B14 VHH with G8E, P14A, K19R, F24A, G56N, I58K, T83I, P84N, D93V, A110G
# notes: periplasmic extract
# B16: VEGFBII39E02 (VHH)
# VHH: B14 VHH with S17P
# notes: periplasmic extract
# B17: VEGFBII56E11 (VHH)
# VHH: B14 VHH with T91A
# notes: periplasmic extract
# B18: VEGFBII40H10 (VHH)
# VHH: B14 VHH with V5M
# notes: periplasmic extract
# B19: VEGFBII22B07 (VHH)
# VHH: B14 VHH with P14A, K19R, F24A, G56N, I58K, T83I, P84N, D93V, A110G
# notes: periplasmic extract
# B20: VEGFBII42A05 (VHH)
# VHH: B14 VHH with T83M
# notes: periplasmic extract
# B21: VEGFBII22B06 (VHH)
# VHH: B14 VHH with F24A, D93V
# notes: periplasmic extract
# B22: VEGFBII23A09 (VHH)
# VHH: B14 VHH with S30G, T75S, D93V, A110P
# notes: periplasmic extract
# B23: VEGFBII40G07 (VHH)
# VHH: B14 VHH with T78A
# notes: periplasmic extract
# B24: VEGFBII62A09 (VHH)
# VHH: B14 VHH with G10D, F24A, D93V
# notes: periplasmic extract
# B25: VEGFBII23F05 (VHH)
# VHH: B14 VHH with P14A, K19R, F24A, G56N, I58K, T83I, P84N, E89K, D93V, A110G
# notes: periplasmic extract
# B26: VEGFBII42D05 (VHH)
# VHH: B14 VHH with D93V
# notes: periplasmic extract
# B27: VEGFBII39G04 (VHH)
# VHH: EVPLVESGGGLVQAGDSLRLSCAASGRTFSSYSMGWFRQAQGKEREFVVAISSSGNYKYDSASLEGRFTISRDNTKNTVYLQINSLKPEDTAVYYCAASRAYGSSRLRLGDTYDYWGQGTQVTVSS
# notes: periplasmic extract
# B28: VEGFBII23F11 (VHH)
# VHH: B14 VHH with S54G
# notes: periplasmic extract
# B29: VEGFBII23G03 (VHH)
# VHH: B14 VHH with S30G, T75S, D93V, A110P, D111G
# notes: periplasmic extract
# B30: VEGFBII30E07 (VHH)
# VHH: B27 VHH with P3Q, A62V, Q121R
# notes: periplasmic extract
# B31: VEGFBII60A09 (VHH)
# VHH: B14 VHH with K76R
# notes: periplasmic extract
# B32: VEGFBII31C07 (VHH)
# VHH: B14 VHH with P14T, K19R, F24A, R27G
# notes: periplasmic extract
# B33: VEGFBII06G02 (VHH)
# VHH: EVQLVESGGGLVQPGGSLRLSCAASGNIFSNNAMAWYRQAPGKQRELVARISSGGGFTYYLDSVKGRFTVSRDNAKNTVYLQMNSLKPEDTAVYYCNAAYRTYNYWGQGTQVTVSS
# B34: VEGFBII03D12 (VHH)
# VHH: EVQLVESGGGLVQAGGSLRLSCTASTSIYTITVMAWFRQAPGKEREFVAAITWSAPTTYYADSVKGRFTISRDNAKNTVYLRMNSLKPEDSAIYYCAADRFKGRSIVTPSDYRYWGQGTQVTVSS
# Experiments:
# [1] = biological target: T1, recombinant human VEGF165 (human, UniProt P15692-4 27-191); experiment: Biacore epitope binning, VEGF165 captured on immobilised VEGFBII23B04
# T1 construct: also called hVEGF165; rhVEGF165
# T1 sequence (P15692 other isoform, or with tags, fused parts or gaps limits assumed): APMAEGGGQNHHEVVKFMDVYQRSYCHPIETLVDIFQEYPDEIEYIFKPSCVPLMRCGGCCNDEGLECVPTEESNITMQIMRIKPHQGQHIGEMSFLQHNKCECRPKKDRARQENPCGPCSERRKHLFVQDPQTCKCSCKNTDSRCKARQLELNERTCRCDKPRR
# Experimental: Biacore-based epitope binning experiments are performed to investigate which VEGF binders bind to a similar or overlapping epitope as VEGFBII23B04. To this end, VEGFBII23B04 is immobilized on a CM5 sensor chip. […] Purified VHHs (100 nM) or periplasmic extracts (1/10 diluted) are then injected with a surface contact time of 240 seconds and a flow rate of 10 uL/minute. Between different samples, the surface is regenerated with regeneration buffer (100 mM HCl). Processed curves are evaluated with Biacore T100 Evaluation software.
# [2] = biological target: T1, recombinant human VEGF165; experiment: Biacore, periplasmic extract on hVEGF165 chip
# Experimental: (§1) Dissociation rates of inhibitory VHHs are analyzed on Biacore (Biacore T100 instrument, GE Healthcare). HBS-EP+ buffer is used as running buffer and experiments are performed at 25° C. […] After immobilization, surfaces are deactivated with 10 min injection of 1M ethanolamine pH8.5. A reference surface is activated and deactivated with respectively EDC/NHS and ethanolamine. Periplasmic extracts of VHHs are injected at a 10-fold dilution in running buffer for 2 min at 45 μl/min and allowed to dissociate for 10 or 15 min. Between different samples, the surfaces are regenerated with regeneration buffer. Data are double referenced by subtraction of the curves on the reference channel and of a blank running buffer injection. […] is evaluated by fitting a two phase decay model in the Biacore T100 Evaluation software v2.0.1.
# [3] = biological target: T1, recombinant human VEGF165; experiment: Biacore, periplasmic extract on hVEGF165 chip, two phase decay fit
# Experimental: as §1
# [4] = biological target: T1, recombinant human VEGF165; experiment: VEGF165/VEGFR2 AlphaScreen
Binder,binding result [1],Binding level (RU) [2],% fast [3],% inhibition [4],IC50 [4]
B1,binds,,,,
B2,,275 RU,21%,,
B3,,205 RU,21%,,
B4,,,,100%,209 pM
B5,,,,100%,227 pM
B6,,,,100%,221 pM
B7,,,,100%,366 pM
B8,,,,100%,253 pM
B9,,,,100%,290 pM
B10,,,,100%,199 pM
B11,,,,100%,215 pM
B12,,,,100%,189 pM
B13,binds,,,,
B14,,229 RU,19%,,
B15,,94 RU,40%,,
B16,,181 RU,13%,,
B17,,76 RU,24%,,

Binder,binding result [1],Binding level (RU) [2],% fast [3],% inhibition [4],IC50 [4]
B18,,200 RU,17%,,
B19,,328 RU,31%,,
B20,,118 RU,25%,,
B21,,168 RU,23%,,
B22,,247 RU,20%,,
B23,,139 RU,19%,,
B24,,84 RU,23%,,
B25,,198 RU,29%,,
B26,,77 RU,26%,,
B27,,210 RU,40%,,
B28,,134 RU,22%,,
B29,,141 RU,28%,,
B30,,226 RU,29%,,
B31,,106 RU,20%,,
B32,,77 RU,25%,,
B33,binds,,,,
B34,binds,,,,
